{"source": "paper doi:10.1101/266718", "about": "(bioRxiv, 2018)", "binders": {"B1": {"name": "Edc3 (natural protein, S. pombe, UniProt O94752 1-454, looked up)", "chain": "MSVADFYGSNVEVLLNNDSKARGVITNFDSSNSILQLRLANDSTKSIVTKDIKDLRILPKNEIMPKNGTKSPSTNSTKLKSAETYSSKNKWSMDCDEEFDFAANLEKFDKKQVFAEFREKDKKDPAKLLVSHNKSPNRNYHHKQNVLGPSVKDEFVDLPSAGSQINGIDAVLSSSSNGHVTPGSKKGSRETLKKKPFVDENIPAELHTTTGDILKPITPEQLSQGIALAIAKTSTDIVVENAAQLLSQFVFSVLGGHKRLSSRNHNSQPLVCILVGSHDHASAAVAAGRRLCAIGIKVVLRLLTPFNVDNRQLLMFQAAGGYIPTENFDQFLNKLTSPIELVVDVLTGFHPSIDKNSHALIQWANDLNVLILSVDIPSGYTVQKKNTAILPKWTLALGAVTTTLAQAALVKQAAGVSVFVGNLGTGSQTWAELGILESQVTGQYLAQISCTSTN"}}, "molecular_target": "T1, Dcp1:Dcp2(1-504) (S. pombe, UniProt Q9P805 1-127; O13828 1-504)", "T1 sequence (looked up) 1": "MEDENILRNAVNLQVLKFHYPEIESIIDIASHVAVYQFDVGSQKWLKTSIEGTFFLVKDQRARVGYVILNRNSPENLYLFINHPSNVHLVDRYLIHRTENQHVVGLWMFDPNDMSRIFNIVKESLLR", "T1 sequence (looked up) 2": "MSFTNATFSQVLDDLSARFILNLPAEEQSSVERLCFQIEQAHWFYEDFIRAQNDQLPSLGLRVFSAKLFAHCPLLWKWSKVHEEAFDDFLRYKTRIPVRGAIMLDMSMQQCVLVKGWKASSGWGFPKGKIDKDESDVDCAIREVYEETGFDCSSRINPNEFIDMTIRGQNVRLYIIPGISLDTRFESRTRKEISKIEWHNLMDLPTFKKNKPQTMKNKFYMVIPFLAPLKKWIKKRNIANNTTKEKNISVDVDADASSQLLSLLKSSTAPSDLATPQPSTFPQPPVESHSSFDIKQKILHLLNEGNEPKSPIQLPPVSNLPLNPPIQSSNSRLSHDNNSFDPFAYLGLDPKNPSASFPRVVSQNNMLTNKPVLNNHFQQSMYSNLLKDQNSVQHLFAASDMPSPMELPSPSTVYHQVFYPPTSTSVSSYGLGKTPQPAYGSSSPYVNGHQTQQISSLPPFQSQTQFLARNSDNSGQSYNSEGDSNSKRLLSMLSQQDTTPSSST", "assay": "cell-based or functional assay", "data": [{"binder": "B1", "values": [{"measurement": "stimulation of the decapping rate of Dcp1:Dcp2ext by excess Edc3", "result": 30, "unit": "fold"}]}]}
